Patent publication US20220017622A1 (Pfizer, published 2022)
Residue numbers refer to the chain shown, from its start. Numbers in names are those of the source.

Experiments:
[1] = molecular target: T1, cynomolgus CD3 on cells from cynomolgus PBMCs (cynomolgus, UniProt Q95LI5 22-198; Q95LI8 22-171); assay: flow cytometry on cyno PBMC, 37 C
T1 construct: whole, on cells; also called Cyno PBMC

[2] = molecular target: T2, human CD3 on primary human T cells (human, UniProt P07766 23-207; P04234 22-171); assay: flow cytometry on primary human T cells, 37 C
T2 construct: whole, on cells; On cells the whole CD3/TCR complex is present

[3] = molecular target: T3, human CD3 (delta/epsilon heterodimer) (human, UniProt P07766 23-126; P04234 22-105); assay: SPR 37 C; CD3 delta/epsilon on anti-His chip, bispecific analyte
T3 construct: captured on an anti-His chip, so it carries a His tag; also called huCD3

[4] = molecular target: T4, cyno CD3 (delta/epsilon heterodimer) (cyno, UniProt Q95LI5 22-117; Q95LI8 22-105); assay: as above
T4 construct: also called cyCD3

[5] = molecular target: T3, human CD3 (delta/epsilon heterodimer); assay: SPR 37 C; CD3 delta/epsilon on anti-His chip, bispecific (stable CHO) analyte
[6] = molecular target: T4, cyno CD3 (delta/epsilon heterodimer); assay: as above
[7] = molecular target: T3, human CD3 (delta/epsilon heterodimer); assay: SPR 37 C; CD3 delta/epsilon on anti-His chip, bispecific (transient expi293) analyte
[8] = molecular target: T4, cyno CD3 (delta/epsilon heterodimer); assay: as above
human B7-H4 on cells = molecular target: T5, human B7-H4 on cells (human, UniProt Q7Z7D3 25-282); assay: cell-based or functional assay
T5 sequence (looked up): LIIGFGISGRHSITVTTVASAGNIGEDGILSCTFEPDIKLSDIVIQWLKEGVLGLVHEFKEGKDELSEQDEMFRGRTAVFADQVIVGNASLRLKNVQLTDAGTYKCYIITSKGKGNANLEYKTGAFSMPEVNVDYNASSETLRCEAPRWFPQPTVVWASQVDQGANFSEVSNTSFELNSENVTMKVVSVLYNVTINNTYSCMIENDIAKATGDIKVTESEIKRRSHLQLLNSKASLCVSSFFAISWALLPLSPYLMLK

[9] = molecular target: T6, human B7-H4 extracellular domain (human, UniProt Q7Z7D3 29-258); assay: SPR 37 C; bispecific (IgG1 scaffold) on anti-hFc chip, ECD analyte
T6 construct: Soluble ECD used as SPR analyte; also called huB7-H4 ECD; huB7-H4
T6 sequence: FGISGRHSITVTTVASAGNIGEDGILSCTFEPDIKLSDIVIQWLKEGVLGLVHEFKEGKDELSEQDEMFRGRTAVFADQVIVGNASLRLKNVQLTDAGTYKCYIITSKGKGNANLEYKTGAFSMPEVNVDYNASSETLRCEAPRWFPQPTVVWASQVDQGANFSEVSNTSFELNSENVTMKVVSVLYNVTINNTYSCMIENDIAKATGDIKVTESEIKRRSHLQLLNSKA

[10] = molecular target: T3, human CD3 (delta/epsilon heterodimer); assay: SPR 37 C; CD3 delta/epsilon on anti-His chip, bispecific (IgG1 scaffold) analyte
[11] = molecular target: T7, human B7-H4 extracellular domain (human, UniProt Q7Z7D3 29-258); assay: SPR Biacore 8K 25 C; mAb captured on anti-human Fc, huB7-H4 ECD analyte, 1:1 fit;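 also: antibodies tested as IgG1, running buffer HBS-EP+ at pH 7.4, rate constants and affinity from a 1:1 Langmuir model fit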
T7 construct: For SPR it says only human B7-H4 ECD; also called Hu B7-H4 ECD; huB7-H4 ECD
T7 sequence: T6 sequence

[12] = molecular target: T7, human B7-H4 extracellular domain; assay: competition ELISA on coated huB7-H4 ECD; competitor biotinylated 0052 (by series, not given); second value of the fourth IC50 column
[13] = molecular target: T7, human B7-H4 extracellular domain; assay: competition ELISA on coated huB7-H4 ECD; competitor biotinylated 0052 (by series, not given); first of the four IC50 [nM] columns; competitor not given

T4 sequence (Q95LI5 22-117, stated change not applied, chain 1 of 2): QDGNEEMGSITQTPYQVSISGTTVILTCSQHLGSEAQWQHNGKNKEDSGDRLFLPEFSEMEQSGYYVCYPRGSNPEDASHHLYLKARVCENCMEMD
T4 sequence (Q95LI8 22-105, stated change not applied, chain 2 of 2): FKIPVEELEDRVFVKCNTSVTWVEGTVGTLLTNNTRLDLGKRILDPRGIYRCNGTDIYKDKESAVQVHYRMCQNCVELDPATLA
T3 sequence (P07766 23-126, stated change not applied, chain 1 of 2): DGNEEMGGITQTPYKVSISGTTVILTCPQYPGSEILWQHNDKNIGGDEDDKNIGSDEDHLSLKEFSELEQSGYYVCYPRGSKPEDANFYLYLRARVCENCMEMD
T3 sequence (P04234 22-105, stated change not applied, chain 2 of 2): as the sequence (Q95LI8 22-105, stated change not applied, chain 2 of 2) above, with V5I, K15N, V20I, T32S, N33D, N34I, A64T, N74S, L83V counted along it
T2 sequence (P07766 23-207, chain 1 of 2): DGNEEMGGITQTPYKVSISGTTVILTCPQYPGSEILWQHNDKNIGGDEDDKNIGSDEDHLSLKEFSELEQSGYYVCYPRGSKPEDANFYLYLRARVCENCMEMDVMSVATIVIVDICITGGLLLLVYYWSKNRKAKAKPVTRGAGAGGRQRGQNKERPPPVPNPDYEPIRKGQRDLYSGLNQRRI
T2 sequence (P04234 22-171, chain 2 of 2): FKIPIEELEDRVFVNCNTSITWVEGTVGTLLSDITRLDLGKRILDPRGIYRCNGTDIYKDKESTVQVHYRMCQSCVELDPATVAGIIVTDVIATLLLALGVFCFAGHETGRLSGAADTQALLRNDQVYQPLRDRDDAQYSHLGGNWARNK
T1 sequence (Q95LI5 22-198, chain 1 of 2): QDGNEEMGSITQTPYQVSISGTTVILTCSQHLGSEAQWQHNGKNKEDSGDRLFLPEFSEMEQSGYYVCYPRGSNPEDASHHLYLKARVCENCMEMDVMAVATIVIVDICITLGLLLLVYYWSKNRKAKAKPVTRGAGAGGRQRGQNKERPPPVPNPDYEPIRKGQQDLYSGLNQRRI
T1 sequence (Q95LI8 22-171, chain 2 of 2): as the sequence (P04234 22-171, chain 2 of 2) above, with I5V, N15K, I20V, S32T, D33N, I34N, T64A, S74N, V83L, H141R counted along it

B1: B7-H4xCD3 bispecific antibody 1167 (bispecific antibody)
heavy 1: EVQLLESGGGLVQPGGSLRLSCAASGFTFSSYAMSWVRQAPGKGLEWVSAISGGGGSTYYADSVKGRFTISRDNSKNTLYLQMNSLRAEDTAVYYCARDIQWYGESTLFDYWGQGTLVTVSSASTKGPSVFPLAPCSRSTSESTAALGCLVKDYFPEPVTVSWNSGALTSGVHTFPAVLQSSGLYSLSSVVTVPSSNFGTQTYTCNVDHKPSNTKVDKTVERKCEVECPECPAPPVAGPSVFLFPPKPKDTLMISRTPEVTCVVVAVSHEDPEVQFNWYVDGVEVHNAKTKPREEQFNSTFRVVSVLTVVHQDWLNGKEYKCKVSNKGLPSSIEKTISKTKGQPREPQVYTLPPSREEMTKNQVSLTCEVKGFYPSDIAVEWESNGQPENNYKTTPPMLDSDGSFFLYSKLTVDKSRWQQGNVFSCSVMHEALHNHYTQKSLSLSPGK
light 1: DIQMTQSPSSLSASVGDRVTITCRASQSTRSHLAWYQQKPGKAPKLLIYKASSLEGGVPSRFSGSGSGTDFTLTISSLQPEDFATYYCQQYGSYSRTFGQGTKVEIKRTVAAPSVFIFPPSDEQLKSGTASVVCLLNNFYPREAKVQWKVDNALQSGNSQESVTEQDSKDSTYSLSSTLTLSKADYEKHKVYACEVTHQGLSSPVTKSFNRGEC
heavy 2: EVQLVESGGGLVQPGGSLRLSCAASGFTFSDYYMTWVRQAPGKGLEWVAFIRNQARGYTSDHNPSVKGRFTISRDNAKNSLYLQMNSLRAEDTAVYYCARDRPSYYVLDYWGQGTTVTVSSASTKGPSVFPLAPCSRSTSESTAALGCLVKDYFPEPVTVSWNSGALTSGVHTFPAVLQSSGLYSLSSVVTVPSSNFGTQTYTCNVDHKPSNTKVDKTVERKCRVRCPRCPAPPVAGPSVFLFPPKPKDTLMISRTPEVTCVVVAVSHEDPEVQFNWYVDGVEVHNAKTKPREEQFNSTFRVVSVLTVVHQDWLNGKEYKCKVSNKGLPSSIEKTISKTKGQPREPQVYTLPPSREEMTKNQVSLTCLVKGFYPSDIAVEWESNGQPENNYKTTPPMLDSDGSFFLYSRLTVDKSRWQQGNVFSCSVMHEALHNHYTQKSLSLSPGK
light 2: DIQMTQSPSSLSASVGDRVTITCTSSQSLFNVRSQKNYLAWYQQKPGKAPKLLIYWASTRESGVPSRFSGSGSGTDFTLTISSLQPEDFATYYCKQSYDLFTFGGGTKVEIKRTVAAPSVFIFPPSDEQLKSGTASVVCLLNNFYPREAKVQWKVDNALQSGNSQESVTEQDSKDSTYSLSSTLTLSKADYEKHKVYACEVTHQGLSSPVTKSFNRGEC
notes: Chains 1-2: B7-H4 arm; chains 3-4: CD3 arm; Full-length chains; IgG2 dA D265A EEE/RRR
With B1 the EC50 [1] was 46 nM, the EC50 [2] was 64 nM and the Kd [3] was 63.5 nM. For the same binder, the koff [3] was roughly 0.0337 s⁻¹, the kon [3] was 531000 M⁻¹ s⁻¹ and the Kd [4] was 66.8 nM. For the same binder, the koff [4] was roughly 0.0338 s⁻¹, the kon [4] was 506000 M⁻¹ s⁻¹ and the Kd [5] was 49.8 nM. It also gave a koff [5] of 0.0317 s⁻¹, a kon [5] of 638000 M⁻¹ s⁻¹ and a Kd [6] of 58.8 nM. For the same binder, the koff [6] was 0.0305 s⁻¹, the kon [6] was 519000 M⁻¹ s⁻¹ and the Kd [7] was 62.5 nM. For the same binder, the koff [7] was 0.0309 s⁻¹, the kon [7] was 499000 M⁻¹ s⁻¹ and the Kd [8] was 70.8 nM. It also gave a koff [8] of 0.0317 s⁻¹ and a kon [8] of 449000 M⁻¹ s⁻¹.

B2: B7-H4xCD3 bispecific antibody 0089 (bispecific antibody, IgG1)
heavy 1: QVQLQQWGAGLLKPSETLSLTCAVYGGSFSGYYWNWIRQPPGKGLEWIGEINHSGSTKYNPSLKSRVTISGDTSKNQFSLKLNSVTAADTAVYYCVRGLYNWNVDSWGQGTLVTVSSASTKGPSVFPLAPSSKSTSGGTAALGCLVKDYFPEPVTVSWNSGALTSGVHTFPAVLQSSGLYSLSSVVTVPSSSLGTQTYICNVNHKPSNTKVDKKVEPKSCEKTHTCPECPAPEAAGAPSVFLFPPKPKDTLMISRTPEVTCVVVDVSHEDPEVKFNWYVDGVEVHNAKTKPREEQYNSTYRVVSVLTVLHQDWLNGKEYKCKVSNKALPAPIEKTISKAKGQPREPQVYTLPPSREEMTKNQVSLTCEVKGFYPSDIAVEWESNGQPENNYKTTPPVLDSDGSFFLYSKLTVDKSRWQQGNVFSCSVMHEALHNHYTQKSLSLSPG
light 1: DIQMTQSPSSLSASVGDRVTITCRASQGIRNDLGWYQQKPGKAPKRLIYVASSLQSGVPSRFSGSGSGTEFTLTISSLQPEDFATYYCLQHNSYPYTFGQGTKLEIKRTVAAPSVFIFPPSDEQLKSGTASVVCLLNNFYPREAKVQWKVDNALQSGNSQESVTEQDSKDSTYSLSSTLTLSKADYEKHKVYACEVTHQGLSSPVTKSFNRGEC
heavy 2: EVQLVESGGGLVQPGGSLRLSCAASGFTFSDYYMTWVRQAPGKGLEWVAFIRNQARGYTSDHNPSVKGRFTISRDNAKNSLYLQMNSLRAEDTAVYYCARDRPSYYVLDYWGQGTTVTVSSASTKGPSVFPLAPSSKSTSGGTAALGCLVKDYFPEPVTVSWNSGALTSGVHTFPAVLQSSGLYSLSSVVTVPSSSLGTQTYICNVNHKPSNTKVDKKVEPKSCRKTHTCPRCPAPEAAGAPSVFLFPPKPKDTLMISRTPEVTCVVVDVSHEDPEVKFNWYVDGVEVHNAKTKPREEQYNSTYRVVSVLTVLHQDWLNGKEYKCKVSNKALPAPIEKTISKAKGQPREPQVYTLPPSREEMTKNQVSLTCLVKGFYPSDIAVEWESNGQPENNYKTTPPVLDSDGSFFLYSRLTVDKSRWQQGNVFSCSVMHEALHNHYTQKSLSLSPG
light 2: B1 light 2
notes: Chains 1-2: B7-H4 arm; chains 3-4: CD3 arm; IgG1 EEE/RRR scaffold
With B2 the “T cell mediated tumor cell killing EC50, HCC1954-Luc” value (human B7-H4 on cells) was 75 nM, the “T cell mediated tumor cell killing, MDA-MB-468” value (human B7-H4 on cells) was 45 and the Kd [9] was 22.3 nM. It also gave a koff [9] of 0.00588 s⁻¹, a kon [9] of 264000 M⁻¹ s⁻¹ and a Kd [10] of 40 nM. For the same binder, the koff [10] was 0.026 s⁻¹ and the kon [10] was 653000 M⁻¹ s⁻¹.

B3: B7-H4 antibody 0047 (antibody, human IgG1, kappa, V domains shown)
VH: QVQLQQWGAGLLKPSETLPLTCAVYGGSFSGYYWNWIRQPPGKGLEWIGEINHSGSATYNPSLKSRVTISVDTSKNHFSLKLSSVTAADTAVYFCARGLYNWNVDHWGQGTLVTVSS
VL: DIQMTQSPSSLSASVGDRVTITCRASQGIRNDLGWYQQKPGKAPKRLIYAASSLQSGVPSRFSGSGSGTEFTLTISSLQPEDFATYYCLQHNSYPRTFGGGTKVEIKR
notes: also called 7H7
B3 was tested, and the Kd [11] was 3.79 nM, the koff [11] was 0.000635 s⁻¹ and the kon [11] was 168000 M⁻¹ s⁻¹. For the same binder, the IC50 [12] was 1 nM and the IC50 [13] was 4.8 nM.

B4: B7-H4xCD3 bispecific antibody 1156 (bispecific antibody, IgG2)
heavy 1: EVQLVESGGGLVQPGGSLRLSCAVSGGSFSGYYWNWVRQAPGKGLEWIGEINHSGSATYNPSLKSRVTISVDTAKNSLYLQMNSLRAEDTAVYYCARGLYNWNVDHWGQGTLVTVSSASTKGPSVFPLAPCSRSTSESTAALGCLVKDYFPEPVTVSWNSGALTSGVHTFPAVLQSSGLYSLSSVVTVPSSNFGTQTYTCNVDHKPSNTKVDKTVERKCEVECPECPAPPVAGPSVFLFPPKPKDTLMISRTPEVTCVVVAVSHEDPEVQFNWYVDGVEVHNAKTKPREEQFNSTFRVVSVLTVVHQDWLNGKEYKCKVSNKGLPSSIEKTISKTKGQPREPQVYTLPPSREEMTKNQVSLTCEVKGFYPSDIAVEWESNGQPENNYKTTPPMLDSDGSFFLYSKLTVDKSRWQQGNVFSCSVMHEALHNHYTQKSLSLSPGK
light 1: B2 light 1 with V50A, E70D, S93A, Y96R, Q100G, L104V
heavy 2: B1 heavy 2
light 2: B1 light 2
notes: as for B1
B4 gave an EC50 [1] of 27 nM, an EC50 [2] of 44.8 nM and a Kd [3] of 62.4 nM. The koff [3] was roughly 0.0339 s⁻¹, the kon [3] was 543000 M⁻¹ s⁻¹ and the Kd [4] was 68.8 nM. It also gave a koff [4] of roughly 0.0341 s⁻¹ and a kon [4] of 496000 M⁻¹ s⁻¹.
